The target in assay [1] is T1, rat PRLR ECD-Fc fusion protein (rat, UniProt P05710 20-229).
T1 construct: extracellular domain; not shown: Fc region (captured by goat anti-human Fc)
T1 sequence (looked up): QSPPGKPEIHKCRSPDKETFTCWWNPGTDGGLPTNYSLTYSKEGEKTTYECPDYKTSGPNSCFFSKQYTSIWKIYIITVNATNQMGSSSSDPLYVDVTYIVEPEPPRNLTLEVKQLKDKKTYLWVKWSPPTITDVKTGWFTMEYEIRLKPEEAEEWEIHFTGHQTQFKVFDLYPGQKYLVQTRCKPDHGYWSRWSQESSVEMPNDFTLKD
Briefly: ELISA on ECD. Summed up:
(§1)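 EC50 values derive from fitted binding curves of antibody serial dilutions (1 h) on captured PRLR. Detection used an HRP-conjugated secondary (1 h), TMB development for 3–5 min, an H₂SO₄ stop and a 450 nm read, with all steps in Tween/PBS pH 7.4 buffer.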

Assay [2] addresses T2, mouse PRLR ECD-Fc fusion protein (mouse, UniProt Q08501 20-229).
T2 construct: extracellular domain; not shown: Fc region (captured by goat anti-human Fc)
T2 sequence (looked up): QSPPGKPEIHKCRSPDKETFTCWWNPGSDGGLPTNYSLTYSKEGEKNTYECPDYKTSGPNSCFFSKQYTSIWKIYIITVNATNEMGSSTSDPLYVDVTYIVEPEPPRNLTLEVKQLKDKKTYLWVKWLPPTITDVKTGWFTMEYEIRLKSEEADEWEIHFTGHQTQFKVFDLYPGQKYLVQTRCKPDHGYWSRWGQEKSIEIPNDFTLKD
The assay is described as follows: ELISA on ECD. Summed up:
as §1
For orientation: In an ELISA, binding on a coated surface is turned into a signal by an enzyme label.

The target of assay [3] is T3, human PRLR on cells (human, UniProt P16471 25-622).
T3 construct: Endogenous on T47D cells, transfected in Baf3-hPRLR cells; also called hPRLR; T47D cells
T3 sequence: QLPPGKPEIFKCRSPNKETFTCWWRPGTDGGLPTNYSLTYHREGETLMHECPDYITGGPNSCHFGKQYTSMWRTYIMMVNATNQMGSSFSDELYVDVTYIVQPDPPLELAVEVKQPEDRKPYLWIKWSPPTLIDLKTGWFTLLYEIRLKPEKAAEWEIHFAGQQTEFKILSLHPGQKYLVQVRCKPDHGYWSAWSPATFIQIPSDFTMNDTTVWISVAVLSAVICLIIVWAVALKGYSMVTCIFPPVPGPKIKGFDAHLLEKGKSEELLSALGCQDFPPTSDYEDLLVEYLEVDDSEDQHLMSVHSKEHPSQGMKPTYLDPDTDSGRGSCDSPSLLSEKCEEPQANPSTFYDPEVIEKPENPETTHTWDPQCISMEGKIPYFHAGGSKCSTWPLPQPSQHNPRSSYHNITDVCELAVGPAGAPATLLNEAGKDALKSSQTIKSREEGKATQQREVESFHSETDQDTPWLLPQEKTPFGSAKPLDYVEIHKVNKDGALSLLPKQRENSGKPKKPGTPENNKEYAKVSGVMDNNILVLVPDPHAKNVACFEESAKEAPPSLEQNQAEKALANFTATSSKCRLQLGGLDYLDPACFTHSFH
The assay is described as follows: FACS T47D 10 ug/mL.

Assay [4] concerns the target T4, rat PRLR on Nb2-11 rat lymphoma cells (rat, UniProt P05710 20-610).
T4 sequence (looked up): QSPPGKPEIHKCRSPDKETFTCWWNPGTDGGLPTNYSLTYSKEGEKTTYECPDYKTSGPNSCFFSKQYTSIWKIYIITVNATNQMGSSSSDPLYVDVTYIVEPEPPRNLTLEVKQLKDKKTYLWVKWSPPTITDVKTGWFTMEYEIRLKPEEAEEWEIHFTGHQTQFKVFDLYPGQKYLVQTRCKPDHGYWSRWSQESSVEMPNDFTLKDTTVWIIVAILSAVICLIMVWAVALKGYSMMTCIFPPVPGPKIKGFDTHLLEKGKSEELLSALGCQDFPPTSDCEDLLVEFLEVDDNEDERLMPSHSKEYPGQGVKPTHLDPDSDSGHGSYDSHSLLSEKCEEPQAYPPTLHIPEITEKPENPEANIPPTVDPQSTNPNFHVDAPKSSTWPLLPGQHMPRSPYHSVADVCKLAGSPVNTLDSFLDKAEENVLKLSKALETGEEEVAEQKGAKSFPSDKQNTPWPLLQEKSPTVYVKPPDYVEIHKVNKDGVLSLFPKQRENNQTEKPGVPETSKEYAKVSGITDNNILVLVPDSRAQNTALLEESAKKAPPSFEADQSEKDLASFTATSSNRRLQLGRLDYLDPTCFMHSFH
The assay is described as follows: cell-based or functional assay.

Assay [5] deals with T5, mouse PRLR on Baf3-mPRLR cells (mouse, UniProt Q08501 20-608).
T5 construct: whole, on cells
T5 sequence (looked up): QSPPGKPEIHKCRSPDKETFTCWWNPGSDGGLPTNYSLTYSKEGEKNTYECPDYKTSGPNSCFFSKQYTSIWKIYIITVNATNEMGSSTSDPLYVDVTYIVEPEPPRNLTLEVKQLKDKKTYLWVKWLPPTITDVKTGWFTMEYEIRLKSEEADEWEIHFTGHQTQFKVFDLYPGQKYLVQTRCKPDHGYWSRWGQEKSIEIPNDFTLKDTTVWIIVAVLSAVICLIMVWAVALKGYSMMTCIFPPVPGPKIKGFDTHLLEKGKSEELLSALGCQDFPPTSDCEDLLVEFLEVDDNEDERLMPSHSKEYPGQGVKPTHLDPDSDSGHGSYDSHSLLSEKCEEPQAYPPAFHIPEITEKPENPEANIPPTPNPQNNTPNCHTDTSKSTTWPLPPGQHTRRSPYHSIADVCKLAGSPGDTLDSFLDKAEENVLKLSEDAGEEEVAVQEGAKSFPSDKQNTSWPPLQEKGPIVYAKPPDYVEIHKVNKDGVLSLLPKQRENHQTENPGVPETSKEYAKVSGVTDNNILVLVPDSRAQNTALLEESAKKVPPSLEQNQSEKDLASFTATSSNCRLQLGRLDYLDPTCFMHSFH
The assay is described as follows: FACS Baf3-mPRLR 10 ug/mL. As for the experimental part: Nb2-11 and Baf3-xPRLR cells were resuspended in FACS buffer (PBS+1% FBS) at 2 millions cells/mL. Cells were added to round bottom 96-well plate (100 uL/well) and treated with testing PRLR antibodies for 1 hr at 4 C. Cells were then washed with FACS buffer twice and incubated with 2nd antibody conjugated to ALEXA488 (Invitrogen) for 1 hr at 4 C. After two washes in FACS buffer, cells were resuspended in 1% formaldehyde in PBS. Cells were analyzed using LSRII flowcytometer.

We go through two molecules from US20170022281A1 (AbbVie / Abbott, published 2017).

B1: Ab11 (antibody, V domains shown)
VH: EVKLVESGGGLVQPGGSLKLSCAASGFTFSDYYMFWVRQTPEKSLEWVAYISNGGGSTYYPDTVKGRFTISRDNAKNTLYLQMSRLKSEDTAMYYCSRQLFYYGSRGAMGYWGQGTSVTVSS
VL: DVLMTQTPLSLPVSLGDQASISCRSSQSIVHSNGNTYLEWYLQKPGQSPKLLIYKVSNRFSGVPDRFSGSGSGTDFTLKISRVEAEDLGVYYCFQGSHVPFTFGSGTKLEIK
notes: murine monoclonal, isotype G1; also called murine Ab11
As a reminder, the EC50 is the concentration needed to bring the measured effect to its halfway point. Low values mean an effect from little substance, high ones a need for much substance. On to B1, for which the EC50 in assay [1] worked out at 0.087 nM; in assay [2], 0.086 nM. For the same molecule, the “FACS GeoMean-neg” value in assay [3] turned out to be 2220; in assay [5], 25. Moreover, the “Nb2-11 proliferation IC50” value in assay [4] was more than 30 µg/mL.

B2: Ab10 (antibody, V domains shown)
VH: EVQLHQSGPELVKPGASVKISCKASGYTFTDYNMHWMKQSHGKSLEWIGYFYPYNGGTGYNQEFKNKATLTVDISSSTAYMELRRLTSEDSAVYYCARGGWGIYYAMDYWGQGTSVTVSS
VL: DIQMTQSPASLSASVGETVTITCRASENIYSYLTWYQQKQGKSPQLLVYNAKTLAEGVPSRFSGSGSGTQFSLKINSLQPEDFGSYHCQHHSVTPLTFGAGTKLELK
notes: murine monoclonal, isotype G2a; also called murine Ab10
On to B2, for which the EC50 in assay [1] stood at 0.234 nM; in assay [2] it was 1.14 nM. For the same molecule, the “FACS GeoMean-neg” value in assay [3] was 2720; in assay [5], 49. Further, the “Nb2-11 proliferation IC50” value in assay [4] was more than 30 µg/mL.
